Measured values taken from US20160272683A1 (Novo Nordisk, published 2016).
Each block holds one binder with its values, some of them ahead of it. Numbered stars: 1 amine (or outer) side, 2 acyl side, 3 side chain; on linkers, the order of the positions; unused ones are H or OH. * marks the point of attachment. C20 diacid = O=C(O)CCCCCCCCCCCCCCCCCCC(=O)*; C18 diacid = O=C(O)CCCCCCCCCCCCCCCCC(=O)*; C16 diacid = O=C(O)CCCCCCCCCCCCCCC(=O)*; γGlu = O=C(O)[C@H](CCC(=O)[*:2])N[*:1]; C14 diacid = O=C(O)CCCCCCCCCCCCC(=O)*; C12 diacid = O=C(O)CCCCCCCCCCC(=O)*; Palmitoyl = CCCCCCCCCCCCCCCC(=O)*; AEEA = NCCOCCOCC(=O)O

Biological target: T1, human calcitonin receptor (human, UniProt P30988 25-474)
T1 construct: whole, on cells; also called hCT-R; hCTR
T1 sequence (looked up): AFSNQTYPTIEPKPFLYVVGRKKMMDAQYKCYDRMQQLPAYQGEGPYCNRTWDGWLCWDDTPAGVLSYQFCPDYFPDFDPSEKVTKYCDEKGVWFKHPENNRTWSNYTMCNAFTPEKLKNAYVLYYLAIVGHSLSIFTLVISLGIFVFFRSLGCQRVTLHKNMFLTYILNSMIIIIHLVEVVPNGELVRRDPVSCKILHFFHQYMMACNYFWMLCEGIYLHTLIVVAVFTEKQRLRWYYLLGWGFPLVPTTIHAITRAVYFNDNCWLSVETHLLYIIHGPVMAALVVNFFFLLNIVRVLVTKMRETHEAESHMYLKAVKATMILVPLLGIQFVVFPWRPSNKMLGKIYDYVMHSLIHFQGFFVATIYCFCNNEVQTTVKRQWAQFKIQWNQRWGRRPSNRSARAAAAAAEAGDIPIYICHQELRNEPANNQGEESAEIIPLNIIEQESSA
Test: whole-cell competition vs 125I-human calcitonin (Assay VIIa)
Procedure, shortened: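 BHK tk'ts 13 cells stably co-expressing human calcitonin receptor and a CRE-luciferase reporter, seeded overnight at 37 °C. Bound tracer counted by scintillation after cold HBSS washes and NaOH/SDS lysis; IC₅₀ from one-site competition fit taken as receptor affinity.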

B1: [N-terminal(C14 diacid)]mimylin (peptide)
peptide: {C14 diacid}-EASELSTAALGRLSAELHELATLPRTETGPESP-NH2
notes: also called Ex. #4
IC50: 1.05 nM

B2: [N-terminal(C12 diacid)]mimylin (peptide)
peptide: {C12 diacid}-EASELSTAALGRLSAELHELATLPRTETGPESP-NH2
notes: also called Ex. #6
IC50: 5.68 nM

B3: [N-terminal(C18 diacid), 18A]mimylin (peptide)
peptide: {C18 diacid}-EASELSTAALGRLSAELAELATLPRTETGPESP-NH2
SMILES: CC(C)C[C@H](NC(=O)[C@H](C)NC(=O)[C@H](C)NC(=O)[C@@H](NC(=O)[C@H](CO)NC(=O)[C@H](CC(C)C)NC(=O)[C@H](CCC(=O)O)NC(=O)[C@H](CO)NC(=O)[C@H](C)NC(=O)[C@H](CCC(=O)O)NC(=O)CCCCCCCCCCCCCCCCC(=O)O)[C@@H](C)O)C(=O)NCC(=O)N[C@@H](CCCNC(=N)N)C(=O)N[C@@H](CC(C)C)C(=O)N[C@@H](CO)C(=O)N[C@@H](C)C(=O)N[C@@H](CCC(=O)O)C(=O)N[C@@H](CC(C)C)C(=O)N[C@@H](C)C(=O)N[C@@H](CCC(=O)O)C(=O)N[C@@H](CC(C)C)C(=O)N[C@@H](C)C(=O)N[C@H](C(=O)N[C@@H](CC(C)C)C(=O)N1CCC[C@H]1C(=O)N[C@@H](CCCNC(=N)N)C(=O)N[C@H](C(=O)N[C@@H](CCC(=O)O)C(=O)N[C@H](C(=O)NCC(=O)N1CCC[C@H]1C(=O)N[C@@H](CCC(=O)O)C(=O)N[C@@H](CO)C(=O)N1CCC[C@H]1C(N)=O)[C@@H](C)O)[C@@H](C)O)[C@@H](C)O
notes: also called Ex. #13
IC50: 0.279 nM

B5: [N-terminal(C18 diacid), 20I]mimylin (peptide)
peptide: {C18 diacid}-EASELSTAALGRLSAELHEIATLPRTETGPESP-NH2
SMILES: CC[C@H](C)[C@H](NC(=O)[C@H](CCC(=O)O)NC(=O)[C@H](Cc1c[nH]cn1)NC(=O)[C@H](CC(C)C)NC(=O)[C@H](CCC(=O)O)NC(=O)[C@H](C)NC(=O)[C@H](CO)NC(=O)[C@H](CC(C)C)NC(=O)[C@H](CCCNC(=N)N)NC(=O)CNC(=O)[C@H](CC(C)C)NC(=O)[C@H](C)NC(=O)[C@H](C)NC(=O)[C@@H](NC(=O)[C@H](CO)NC(=O)[C@H](CC(C)C)NC(=O)[C@H](CCC(=O)O)NC(=O)[C@H](CO)NC(=O)[C@H](C)NC(=O)[C@H](CCC(=O)O)NC(=O)CCCCCCCCCCCCCCCCC(=O)O)[C@@H](C)O)C(=O)N[C@@H](C)C(=O)N[C@H](C(=O)N[C@@H](CC(C)C)C(=O)N1CCC[C@H]1C(=O)N[C@@H](CCCNC(=N)N)C(=O)N[C@H](C(=O)N[C@@H](CCC(=O)O)C(=O)N[C@H](C(=O)NCC(=O)N1CCC[C@H]1C(=O)N[C@@H](CCC(=O)O)C(=O)N[C@@H](CO)C(=O)N1CCC[C@H]1C(N)=O)[C@@H](C)O)[C@@H](C)O)[C@@H](C)O
notes: also called Ex. #12
IC50: 0.419 nM

B10: [N-terminal(C16 diacid)]mimylin (peptide)
peptide: {C16 diacid}-EASELSTAALGRLSAELHELATLPRTETGPESP-NH2
notes: also called Ex. #3
IC50: 0.413 nM

B11: [N-terminal(C14 diacid-2xgGlu-4xOEG)]mimylin (peptide)
peptide: {C14 diacid-γGlu-γGlu-AEEA-AEEA-AEEA-AEEA}-EASELSTAALGRLSAELHELATLPRTETGPESP-NH2
notes: also called Ex. #5
IC50: 6.51 nM

B12: [N-terminal(C20 diacid-gGlu-3xOEG), des1, 30S, 31G]mimylin (peptide)
peptide: {C20 diacid-γGlu-AEEA-AEEA-AEEA}-ASELSTAALGRLSAELHELATLPRTETGSGSP-NH2
notes: also called Ex. #43
IC50: 0.352 nM

B13: [N-terminal(C14 diacid-gGlu), des1]mimylin (peptide)
peptide: {C14 diacid-γGlu}-ASELSTAALGRLSAELHELATLPRTETGPESP-NH2
notes: also called Ex. #19
IC50: 0.515 nM

B15: [N-terminal(C16)]mimylin (peptide)
peptide: Palmitoyl-EASELSTAALGRLSAELHELATLPRTETGPESP-NH2
notes: also called Ex. #7
IC50: 0.834 nM

Second part, the binder after the results:

IC50: 1.17 nM
B4: [N-terminal(C18 diacid), 32H]mimylin (peptide)
peptide: {C18 diacid}-EASELSTAALGRLSAELHELATLPRTETGPEHP-NH2
SMILES: CC(C)C[C@H](NC(=O)[C@H](C)NC(=O)[C@H](C)NC(=O)[C@@H](NC(=O)[C@H](CO)NC(=O)[C@H](CC(C)C)NC(=O)[C@H](CCC(=O)O)NC(=O)[C@H](CO)NC(=O)[C@H](C)NC(=O)[C@H](CCC(=O)O)NC(=O)CCCCCCCCCCCCCCCCC(=O)O)[C@@H](C)O)C(=O)NCC(=O)N[C@@H](CCCNC(=N)N)C(=O)N[C@@H](CC(C)C)C(=O)N[C@@H](CO)C(=O)N[C@@H](C)C(=O)N[C@@H](CCC(=O)O)C(=O)N[C@@H](CC(C)C)C(=O)N[C@@H](Cc1c[nH]cn1)C(=O)N[C@@H](CCC(=O)O)C(=O)N[C@@H](CC(C)C)C(=O)N[C@@H](C)C(=O)N[C@H](C(=O)N[C@@H](CC(C)C)C(=O)N1CCC[C@H]1C(=O)N[C@@H](CCCNC(=N)N)C(=O)N[C@H](C(=O)N[C@@H](CCC(=O)O)C(=O)N[C@H](C(=O)NCC(=O)N1CCC[C@H]1C(=O)N[C@@H](CCC(=O)O)C(=O)N[C@@H](Cc1c[nH]cn1)C(=O)N1CCC[C@H]1C(N)=O)[C@@H](C)O)[C@@H](C)O)[C@@H](C)O
notes: also called Ex. #18

IC50: 2.54 nM
B6: [N-terminal(C20 diacid-gGlu), 1A, 23Y, 30S, 31G]mimylin (peptide)
peptide: {C20 diacid-γGlu}-AASELSTAALGRLSAELHELATYPRTETGSGSP-NH2
SMILES: CC(C)C[C@H](NC(=O)[C@H](C)NC(=O)[C@H](C)NC(=O)[C@@H](NC(=O)[C@H](CO)NC(=O)[C@H](CC(C)C)NC(=O)[C@H](CCC(=O)O)NC(=O)[C@H](CO)NC(=O)[C@H](C)NC(=O)[C@H](C)NC(=O)CC[C@H](NC(=O)CCCCCCCCCCCCCCCCCCC(=O)O)C(=O)O)[C@@H](C)O)C(=O)NCC(=O)N[C@@H](CCCNC(=N)N)C(=O)N[C@@H](CC(C)C)C(=O)N[C@@H](CO)C(=O)N[C@@H](C)C(=O)N[C@@H](CCC(=O)O)C(=O)N[C@@H](CC(C)C)C(=O)N[C@@H](Cc1c[nH]cn1)C(=O)N[C@@H](CCC(=O)O)C(=O)N[C@@H](CC(C)C)C(=O)N[C@@H](C)C(=O)N[C@H](C(=O)N[C@@H](Cc1ccc(O)cc1)C(=O)N1CCC[C@H]1C(=O)N[C@@H](CCCNC(=N)N)C(=O)N[C@H](C(=O)N[C@@H](CCC(=O)O)C(=O)N[C@H](C(=O)NCC(=O)N[C@@H](CO)C(=O)NCC(=O)N[C@@H](CO)C(=O)N1CCC[C@H]1C(N)=O)[C@@H](C)O)[C@@H](C)O)[C@@H](C)O
notes: also called Ex. #57

IC50: 0.315 nM
B7: [N-terminal(C18 diacid), 30S, 31G]mimylin (peptide)
peptide: {C18 diacid}-EASELSTAALGRLSAELHELATLPRTETGSGSP-NH2
notes: also called Ex. #21

IC50: 2.27 nM
B8: [N-terminal(C20 diacid-gGlu), 23Y, 30S, 31G]mimylin (peptide)
peptide: {C20 diacid-γGlu}-EASELSTAALGRLSAELHELATYPRTETGSGSP-NH2
SMILES: CC(C)C[C@H](NC(=O)[C@H](C)NC(=O)[C@H](C)NC(=O)[C@@H](NC(=O)[C@H](CO)NC(=O)[C@H](CC(C)C)NC(=O)[C@H](CCC(=O)O)NC(=O)[C@H](CO)NC(=O)[C@H](C)NC(=O)[C@H](CCC(=O)O)NC(=O)CC[C@H](NC(=O)CCCCCCCCCCCCCCCCCCC(=O)O)C(=O)O)[C@@H](C)O)C(=O)NCC(=O)N[C@@H](CCCNC(=N)N)C(=O)N[C@@H](CC(C)C)C(=O)N[C@@H](CO)C(=O)N[C@@H](C)C(=O)N[C@@H](CCC(=O)O)C(=O)N[C@@H](CC(C)C)C(=O)N[C@@H](Cc1c[nH]cn1)C(=O)N[C@@H](CCC(=O)O)C(=O)N[C@@H](CC(C)C)C(=O)N[C@@H](C)C(=O)N[C@H](C(=O)N[C@@H](Cc1ccc(O)cc1)C(=O)N1CCC[C@H]1C(=O)N[C@@H](CCCNC(=N)N)C(=O)N[C@H](C(=O)N[C@@H](CCC(=O)O)C(=O)N[C@H](C(=O)NCC(=O)N[C@@H](CO)C(=O)NCC(=O)N[C@@H](CO)C(=O)N1CCC[C@H]1C(N)=O)[C@@H](C)O)[C@@H](C)O)[C@@H](C)O
notes: also called Ex. #34

IC50: 0.188 nM
B9: [N-terminal(C20 diacid), 30S, 31G]mimylin (peptide)
peptide: {C20 diacid}-EASELSTAALGRLSAELHELATLPRTETGSGSP-NH2
notes: also called Ex. #22

IC50: 0.798 nM
B14: [N-terminal(C18 diacid)]mimylin (peptide)
peptide: {C18 diacid}-EASELSTAALGRLSAELHELATLPRTETGPESP-NH2
SMILES: CC(C)C[C@H](NC(=O)[C@H](C)NC(=O)[C@H](C)NC(=O)[C@@H](NC(=O)[C@H](CO)NC(=O)[C@H](CC(C)C)NC(=O)[C@H](CCC(=O)O)NC(=O)[C@H](CO)NC(=O)[C@H](C)NC(=O)[C@H](CCC(=O)O)NC(=O)CCCCCCCCCCCCCCCCC(=O)O)[C@@H](C)O)C(=O)NCC(=O)N[C@@H](CCCNC(=N)N)C(=O)N[C@@H](CC(C)C)C(=O)N[C@@H](CO)C(=O)N[C@@H](C)C(=O)N[C@@H](CCC(=O)O)C(=O)N[C@@H](CC(C)C)C(=O)N[C@@H](Cc1c[nH]cn1)C(=O)N[C@@H](CCC(=O)O)C(=O)N[C@@H](CC(C)C)C(=O)N[C@@H](C)C(=O)N[C@H](C(=O)N[C@@H](CC(C)C)C(=O)N1CCC[C@H]1C(=O)N[C@@H](CCCNC(=N)N)C(=O)N[C@H](C(=O)N[C@@H](CCC(=O)O)C(=O)N[C@H](C(=O)NCC(=O)N1CCC[C@H]1C(=O)N[C@@H](CCC(=O)O)C(=O)N[C@@H](CO)C(=O)N1CCC[C@H]1C(N)=O)[C@@H](C)O)[C@@H](C)O)[C@@H](C)O
notes: also called Ex. #2
